Data taken from patent US8932880B2, “Method for the direct measure of molecular interactions by detection of light reflected from multilayered functionalized dielectrics” (ProXentia s.r.l., priority 2009, dated 2015).

Biological target: T1, Avidin (Gallus gallus, UniProt P02701)
T1 construct: purchased Sigma-Aldrich A9275
Test: Reflected light intensity from an antireflective SiO2-coated prism, He-Ne laser and photodiode (Example 2): binding to adsorbed Avidin
Conditions: 632.8 nm laser; flow 10 microliters/minute; phosphate buffer pH 7.4 + 150 millimolar NaCl; BSA 0.4 micromolar, BSA-biotin 0.5 micromolar
Text: A layer of silicon oxide (SiO2) was deposed by sputtering on one side of a glass prism, as described in Example 1. The prism is placed in a flow cell so that the coated surface is in contact with the aqueous solution. A light beam from a 5 milliwatts He—Ne laser is sent to the interface between the aqueous solution and the prism and the reflected light is detected by a photodiode that converts the light intensity in an electrical signal. Through the cell is promoted a flow of 10 microliters/minute of an aqueous solution containing sodium phosphate buffer pH 7.4+150 millimolar NaCl (hereafter called “phosphate buffer”) in the following order:
b) protein Avidin (marketed by Sigma-Aldrich, prod. No. A9275) at a concentration of 3 micromolar;
d) protein Bovine Serum Albumin, BSA (marketed by Sigma-Aldrich, prod. No. A6003) at a concentration of 0.4 micromolar;
f) protein BSA conjugated to biotin (marketed by Sigma-Aldrich, prod. No. A8549) at a concentration of 0.5 micromolar;
In FIG. 5 the measured reflected intensity is reported as a function of time. The value of the reflected light intensity measured before the step a) corresponds to a reflectivity of 3.2·10^−6. […] Unlike in Example 1, in this case the adhesion molecules on the surface causes an increase in the intensity of reflected light. […]

T1 sequence (P02701 25-152): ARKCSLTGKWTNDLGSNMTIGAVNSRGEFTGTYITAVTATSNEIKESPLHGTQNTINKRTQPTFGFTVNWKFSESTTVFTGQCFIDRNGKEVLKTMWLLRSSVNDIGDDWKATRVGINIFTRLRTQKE

Bovine Serum Albumin [BSA protein]
variation of reflected intensity on flowing the solution over adsorbed Avidin: no further variation is observed
